Experimental data published in the supplement of paper PMC9170038.

System: MS2 coat protein
Test: apparent KD of MS2 coat protein; designed switch direction (-1 OFF switch, 1 ON switch): -1; higher = weaker reporter binding
Summary of the method: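 The buffer was Tris-HCl pH 7.5 with KCl, MgCl2, BSA, DTT, tRNA and Tween-20. In it, SNAP-549-labelled MS2 coat protein was titrated in doubling steps from 0.7 or 1.5 nM to 3 µM over chip-bound RNA switches transcribed by stalled E. coli RNA polymerase on Illumina chips. Apparent KD is the per-design median over clusters of curve fits to normalised fluorescence.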

[1] = Eterna round: R95, input ligand: FMN 200 uM
[2] = Eterna round: R95, input ligand: microRNA oligo, concentration not stated
[3] = Eterna round: R95, input ligand: none
[4] = input ligand: microRNA oligo, concentration not stated

Row | Sequence | apparent KD of MS2 coat protein [1] | apparent KD of MS2 coat protein [2] | apparent KD of MS2 coat protein [3] | apparent KD of MS2 coat protein (input ligand: FMN 200 uM) | apparent KD of MS2 coat protein (input ligand: none) | apparent KD of MS2 coat protein [4]
1 | GAAUACAAGCAAAGAUCCUACAUGAGGAUCACCCAUGUGCUCGUCUUGUAAAGUACUAUCACGAAAGUGAUAGUACA [Mat - Sensor v3 - turn-off var 1 - Eli Mod - D78] (puzzle: Sensor v3, turn-off variant 1) | 76.7 nM | 16.9 nM | 60.1 nM |  |  | 
2 | GAGUGUUGAGGAUAUACAUGAGGAUCACCCAUGUGCUUCAGCUAGGAGACUAGCAUUGGUAGAAGGCAGUACUC [Mod of lroppy 9 - Jieux - Exclusion 3] (Eterna round: R97, puzzle: Exclusion 3) |  |  |  | 48.3 nM | 37.1 nM | 
3 | GUCAGUAUAUAACAAGCAUACAUGAGGAUCACCCAUGUGCGCGGAAAGCGUUUCCGCGCAUAUCGUUCCUAGCUCGG [Eternabot (Original) Solution 14] (Eterna round: R97, puzzle: Sensor, turn-off variant 1) |  |  |  | 419 nM | 505 nM | 
4 | GGUUGGCGAGGAUAUACAUGAGGAUCACCCAUGUGAGAGAAUAAAGUGAGGAAGAAAAGUAGAAGGCGCUGACA [Mat - Exclusion 3 - Mod of Salish D8] (puzzle: Exclusion 3) | 154 nM | 42.1 nM | 40.7 nM |  |  | 
5 | AAGAUGUCAGGAUAUUAGUAGUAAAUAAAUAAAAUUAUUACUGAGAAGGGACAUGAGGAUCACCCAUGUGCCUU [Salish 062 v10] (Eterna round: R97, puzzle: Exclusion 4) |  |  |  | 16.4 nM | 16.9 nM | 
6 | GGUCAAGAACAGAUCCGCGCUGCCAUUGACCGCUCAUUUACAUGAGGAUCACCCAUGUUUUUUGCUCGUCUUACUAC [Edesso] (puzzle: Sensor v3, turn-off variant 2) | 20.8 nM | 61.4 nM | 19.3 nM |  |  | 
7 | GCUGGACGAGGAUAUACAUGAGGAUCACCCAUGUGAUCAGCAGUCCUCGGACUGCAAUGUAGAAGGUGUCCAGC [E3/1-B2] (Eterna round: R97, puzzle: Exclusion 3) |  |  |  | 302 nM | 2320 nM | 
8 | AUCAGCUCGUGAGGAUAUAUAUACAUGAGGAUCACCCAUGUAAGAUCAGGCUUCGGCCAAUGUAUAUAGAAGGCACGAGCUGAU [ENG2/11-A3] (Eterna round: R96, puzzle: Exclusion NG 2) |  |  |  | 403 nM | 808 nM | 535 nM
9 | UUGAUGUGAGGAUAUAUUUUUUUUUUUCUUUAUGUUUUAUAACUUGAGGAUCACCCAAGUAGAAGGCGCUACGU [JR_Ex2_Sub064] (Eterna round: R97, puzzle: Exclusion 2) |  |  |  | 51.7 nM | 30.5 nM | 
10 | UUUUUAUAUGAAGGAUAUACUUAACAUGAGGAUCACCCAUGUGGUGUUGUGAGUGAGUGAGUUUAGUAGAAGGUCAAUGAUUUG [JMF's solution 63] (Eterna round: R96, puzzle: Exclusion NG 2) |  |  |  | 894 nM | 563 nM | 237 nM
11 | UGCCGGCAUGUAAGGAUAUCCAGGAGAUGUAGAUCGGAGAAGGUACAUGAGGAUCACCCAUGUAUUCCAAUAAA [BmEX4 C.19] (Eterna round: R97, puzzle: Brourd's mod of Exclusion 4) |  |  |  | 18 nM | 18.5 nM | 
12 | GUCAGCUCGUGAGGAUAUAUAUAUACAUGAGGAUCACCCAUGUUAGAUCAGCUUCGGCAGUAUAUAUAGAAGGCACGAGCUGAC [ENG2/15-A1] (Eterna round: R96, puzzle: Exclusion NG 2) |  |  |  | 345 nM | 87.6 nM | 78.9 nM
13 | UGAAACCUAGGAUAUACAUGAGGAUCACCCAUGUAAUGUAGUAUAGUAUAUGUAAGAUGUAGAAGGAGGAAUGU [LRO-Excl05-27-Smart Aleck] (Eterna round: R97, puzzle: Exclusion 3) |  |  |  | 30.9 nM | 34.9 nM | 
